Source: patent US20250092151A1 (ALTRUBIO, published 2025)

T1: human P-selectin glycoprotein ligand-1 (PSGL-1), expressed on Sp2/0-hPSGL-1 cells (human, UniProt Q14242 42-412)
T1 construct: Sp2/0 cells transfected with human PSGL-1; also called human PSGL-1; SELPLG
T1 sequence: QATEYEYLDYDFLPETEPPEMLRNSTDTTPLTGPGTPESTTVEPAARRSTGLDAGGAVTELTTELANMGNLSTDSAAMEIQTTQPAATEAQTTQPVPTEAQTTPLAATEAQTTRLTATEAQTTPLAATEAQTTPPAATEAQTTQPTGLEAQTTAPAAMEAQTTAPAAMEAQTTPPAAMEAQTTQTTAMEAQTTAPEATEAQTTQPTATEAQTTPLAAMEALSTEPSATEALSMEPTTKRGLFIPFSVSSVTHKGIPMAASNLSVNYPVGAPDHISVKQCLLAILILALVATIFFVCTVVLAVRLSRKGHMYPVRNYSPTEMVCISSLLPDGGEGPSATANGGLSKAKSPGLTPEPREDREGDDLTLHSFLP

B1: h15A7H scFv2-LC-IgG4p (antibody)
light: EVQLVESGGGLVQPGGSLRLSCAASGFTFSSFGMHWVRQAPGKCLEWVAYINGGSSTIFYANAVKGRFTISRDNAKNTLYLQMNSLRAEDTAVYYCARYASYGGGAMDYWGQGTLVTVSSGGGGSGGGGSGGGGSGGGGSGGGGSDIQMTQSPSSLSASVGDRVTITCRSSQSIVHNDGNTYFEWYQQKPGKAPKLLIYKVSNRFSGVPSRFSGSGSGTHFTLTISSLQPEDFATYYCFQGSYVPLTFGCGTKVEIKASTGSGGGGSDIQMTQSPSSLSASVGDRVTITCRSSQSIVHNDGNTYFEWYQQKPGKAPKLLIYKVSNRFSGVPSRFSGSGSGTHFTLTISSLQPEDFATYYCFQGSYVPLTFGQGTKVEIKRTVAAPSVFIFPPSDEQLKSGTASVVCLLNNFYPREAKVQWKVDNALQSGNSQESVTEQDSKDSTYSLSSTLTLSKADYEKHKVYACEVTHQGLSSPVTKSFNRGEC
heavy: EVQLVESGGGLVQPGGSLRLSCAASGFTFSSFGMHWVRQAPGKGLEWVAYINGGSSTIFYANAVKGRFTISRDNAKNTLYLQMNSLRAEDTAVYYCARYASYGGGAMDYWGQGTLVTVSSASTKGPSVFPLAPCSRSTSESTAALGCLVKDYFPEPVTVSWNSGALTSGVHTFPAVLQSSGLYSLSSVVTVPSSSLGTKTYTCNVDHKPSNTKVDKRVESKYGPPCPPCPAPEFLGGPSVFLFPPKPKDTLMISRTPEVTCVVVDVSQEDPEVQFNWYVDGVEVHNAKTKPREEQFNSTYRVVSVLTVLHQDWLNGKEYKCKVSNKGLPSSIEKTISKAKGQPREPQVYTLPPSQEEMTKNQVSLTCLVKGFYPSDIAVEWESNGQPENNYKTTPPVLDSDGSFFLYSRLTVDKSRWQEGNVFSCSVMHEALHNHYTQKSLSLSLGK
notes: Tetravalent: a v2 scFv fused to the N-terminus of each kappa light chain of h15A7H IgG4p
B2: h15A7H scFv4-crIgG4p (antibody)
light: EVQLVESGGGLVQPGGSLRLSCAASGFTFSSFGMHWVRQAPGKCLEWVAYINGGSSTIFYANAVKGRFTISRDNAKNTLYLQMNSLRAEDTAVYYCARYASYGGGAMDYWGQGTLVTVSSGGGGSGGGGSGGGGSGGGGSGGGGSDIQMTQSPSSLSASVGDRVTITCRSSQSIVHNDGNTYFEWYQQKPGKAPKLLIYKVSNRFSGVPSRFSGSGSGTHFTLTISSLQPEDFATYYCFQGSYVPLTFGCGTKVEIKRTVAAPSVFIFPPSDEQLKSGTASVVCLLNNFYPREAKVQWKVDNALQSGNSQESVTEQDSKDSTYSLSSTLTLSKADYEKHKVYACEVTHQGLSSPVTKSFNRGEC
heavy: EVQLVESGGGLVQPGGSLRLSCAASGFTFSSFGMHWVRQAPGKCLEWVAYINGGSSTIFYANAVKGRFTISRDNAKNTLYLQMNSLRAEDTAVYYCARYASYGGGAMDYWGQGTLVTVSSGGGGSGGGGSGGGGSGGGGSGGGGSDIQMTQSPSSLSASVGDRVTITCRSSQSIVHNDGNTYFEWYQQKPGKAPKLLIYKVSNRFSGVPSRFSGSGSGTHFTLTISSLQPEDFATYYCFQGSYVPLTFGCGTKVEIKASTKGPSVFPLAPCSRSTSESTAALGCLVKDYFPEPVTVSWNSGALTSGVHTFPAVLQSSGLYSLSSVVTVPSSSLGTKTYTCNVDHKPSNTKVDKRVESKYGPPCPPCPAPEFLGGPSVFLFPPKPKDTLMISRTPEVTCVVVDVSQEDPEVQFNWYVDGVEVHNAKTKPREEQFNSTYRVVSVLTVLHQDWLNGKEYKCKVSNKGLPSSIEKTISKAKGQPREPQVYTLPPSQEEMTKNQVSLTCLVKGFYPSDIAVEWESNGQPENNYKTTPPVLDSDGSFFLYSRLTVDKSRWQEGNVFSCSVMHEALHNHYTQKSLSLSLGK
notes: Tetravalent: four v2 scFv units fused without a linker to the N-termini of the kappa and IgG4p constant regions
B3: h15A7H (antibody, IgG4, V domains shown)
VH: EVQLVESGGGLVQPGGSLRLSCAASGFTFSSFGMHWVRQAPGKGLEWVAYINGGSSTIFYANAVKGRFTISRDNAKNTLYLQMNSLRAEDTAVYYCARYASYGGGAMDYWGQGTLVTVSS
VL: DIQMTQSPSSLSASVGDRVTITCRSSQSIVHNDGNTYFEWYQQKPGKAPKLLIYKVSNRFSGVPSRFSGSGSGTHFTLTISSLQPEDFATYYCFQGSYVPLTFGQGTKVEIK
notes: Bivalent humanized IgG4 kappa antibody with the S228P hinge mutation; also called humanized 15A7H; wild type h15A7H; not shown: human immunoglobulin kappa light chain constant region
B4: h15A7H LC-scFv2-IgG4p (antibody)
light: DIQMTQSPSSLSASVGDRVTITCRSSQSIVHNDGNTYFEWYQQKPGKAPKLLIYKVSNRFSGVPSRFSGSGSGTHFTLTISSLQPEDFATYYCFQGSYVPLTFGQGTKVEIKRTVAAPSVFIFPPSDEQLKSGTASVVCLLNNFYPREAKVQWKVDNALQSGNSQESVTEQDSKDSTYSLSSTLTLSKADYEKHKVYACEVTHQGLSSPVTKSFNRGECGGGGSGGGGSEVQLVESGGGLVQPGGSLRLSCAASGFTFSSFGMHWVRQAPGKCLEWVAYINGGSSTIFYANAVKGRFTISRDNAKNTLYLQMNSLRAEDTAVYYCARYASYGGGAMDYWGQGTLVTVSSGGGGSGGGGSGGGGSGGGGSGGGGSDIQMTQSPSSLSASVGDRVTITCRSSQSIVHNDGNTYFEWYQQKPGKAPKLLIYKVSNRFSGVPSRFSGSGSGTHFTLTISSLQPEDFATYYCFQGSYVPLTFGCGTKVEIKAAAHHHHHHHHHH
heavy: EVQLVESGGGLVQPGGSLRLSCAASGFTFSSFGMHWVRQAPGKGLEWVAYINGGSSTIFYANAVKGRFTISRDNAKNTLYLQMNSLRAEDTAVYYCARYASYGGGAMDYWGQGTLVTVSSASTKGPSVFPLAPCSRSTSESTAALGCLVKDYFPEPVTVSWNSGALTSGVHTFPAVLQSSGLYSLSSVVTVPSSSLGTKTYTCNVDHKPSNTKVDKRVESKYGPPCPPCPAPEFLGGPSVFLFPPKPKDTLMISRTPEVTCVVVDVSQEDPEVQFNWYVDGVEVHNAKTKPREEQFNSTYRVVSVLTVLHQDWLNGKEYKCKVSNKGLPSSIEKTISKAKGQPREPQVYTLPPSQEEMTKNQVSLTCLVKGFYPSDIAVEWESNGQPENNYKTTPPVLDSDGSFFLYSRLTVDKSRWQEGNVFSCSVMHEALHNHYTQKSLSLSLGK
notes: Tetravalent: a v2 scFv fused to the C-terminus of each kappa light chain of h15A7H IgG4p

Columns and labels:
[1] = target: T1, human P-selectin glycoprotein ligand-1 …; assay: flow cytometry on Sp2/0-hPSGL-1 cells, antibody at 0.1 µg/mL
Experimental: (§1) Sp2/0 cells transfected with human PSGL-1 (Sp2/0-hPSGL1) were used as the PSGL-1 expressing cell line. Sp2/0-hPSGL1 cells were centrifuged at 1200 rpm for 5 min. The cell pellets were resuspended in FACS buffer (PBS containing 1% FBS) and pipetted into 96 well plate (1×10⁵ cells/well). To each well was added 100 μl of supernatants containing humanized 15A7H (h15A7H)/tetravalent antibodies, and these were incubated for 60 min at 4° C. The cells were washed three times with cold FACS buffer and then incubated with 100 μl of Mouse Anti-Human IgG₄ pFc′-PE (SouthernBiotech Cat. no. 9190-09) at 1 μg/ml concentration for 60 min at 4° C. Subsequently, the cells were washed three times with cold FACS buffer and analyzed by FACS analysis. All flow cytometric analyses were performed on a BD-LSR flow cytometer (Becton Dickinson) using the Cell Quest software.
(§2) The binding ability of h15A7H tetravalent antibodies was evaluated in human PSGL-1 SP2/O cells. The h15A7H tetravalent antibody bound positively to the SP2/O-hPSGL-1, but not to parental SP2/O cell lacking of hPSGL-1 antigen (Table A below). Additionally, wild type h15A7H and all of h15A7H tetravalent antibodies gave similar binding activity on SP2/O-hPSGL-1 (Table A).

[2] = target: T1, human P-selectin glycoprotein ligand-1 …; assay: flow cytometry on Sp2/0-hPSGL-1 cells, antibody at 3 µg/mL
Experimental: as §1, §2

[3] = target: T1, human P-selectin glycoprotein ligand-1 …; assay: cell-based or functional assay
[4] = target: T1, human P-selectin glycoprotein ligand-1 …; assay: flow cytometry on Sp2/0-hPSGL-1 cells, antibody at 0.3 µg/mL
Experimental: as §1, §2

[5] = target: T1, human P-selectin glycoprotein ligand-1 …; assay: flow cytometry on Sp2/0-hPSGL-1 cells, antibody at 1 µg/mL
Experimental: as §1, §2

| Binder | mean fluorescence intensity [1] [MFI] | mean fluorescence intensity [2] [MFI] | Apoptosis % (background subtracted, n = 4), mean, at 0.0625 µg/mL, SP2/O-hPSGL-1 cells, Annexin V/PI [3] [%] | Apoptosis % (background subtracted, n = 4), mean, at 0.5 µg/mL, SP2/O-hPSGL-1 cells, Annexin V/PI [3] [%] | mean fluorescence intensity [4] [MFI] | mean fluorescence intensity [5] [MFI] |
| --- | --- | --- | --- | --- | --- | --- |
| B1 | 5540 | 4380 | 15.5 | 23.8 | 7060 | 5740 |
| B2 | 2640 | 5940 | 1.75 | 35.8 | 4640 | 6010 |
| B3 | 3410 | 4670 | 1.5 | 2.75 | 5940 | 6400 |
| B4 | 3040 | 6030 | 0.5 | 18 | 3480 | 5820 |
